{"source": "the RNAGym collection of RNA variant scans (doi:10.1073/pnas.2313332121)", "parents": {"B1": {"name": "TPR t1 (parent)", "chain": "GACCAAUCUGCCCUCAGAGCUCGAGAACAUCUUCGGAUGCAGAGGAGGCAGGCUUCGGUGGCGCGAUAGCGCCAACGUCCUCAACCUCCAAUGCAUCCCACCACAUGAUGAUGCCUGAAGAGCCUUGGUUUUUUG"}}}
{"variants_of": "B1", "assay": "polymerase ribozyme fitness, log enrichment relative to wild type (log ratio); higher = more active; in vitro selection for triplet polymerase activity", "procedure,_shortened": "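A single round of triplicate in vitro selection, including frozen incubation at −7 °C, was applied to PCR-built, transcribed mutant libraries of each subunit of a heterodimeric triplet polymerase ribozyme. Illumina sequencing of input and output libraries retained genotypes with ≥10 input reads and ≥1 read per output. Fitness is the base-2 logarithm of genotype enrichment divided by wild-type enrichment, from inverse-variance-weighted replicate averages.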"}
{"variant": "G17U U67G C73A U78C G93U C98G U116C", "polymerase ribozyme fitness (log ratio)": -6.28}
{"variant": "G17U G57A C101A G107U G120C G127A U132C", "polymerase ribozyme fitness (log ratio)": -5.32}
{"variant": "A18G C20G C31A G60C C99A G110U", "polymerase ribozyme fitness (log ratio)": -1.91}
{"variant": "G17U A83G", "polymerase ribozyme fitness (log ratio)": -2.64}
{"variant": "G17A G77A", "polymerase ribozyme fitness (log ratio)": -3.49}
{"variant": "A18G G63C", "polymerase ribozyme fitness (log ratio)": -2.89}
{"variant": "G17C C123A", "polymerase ribozyme fitness (log ratio)": -2.92}
{"variant": "G17U U81A", "polymerase ribozyme fitness (log ratio)": -3.22}
{"variant": "A18C A74U", "polymerase ribozyme fitness (log ratio)": -4.85}
{"variant": "G17U G71A A84U U96G G128U U130C", "polymerase ribozyme fitness (log ratio)": -5.57}
{"variant": "A18G A118G", "polymerase ribozyme fitness (log ratio)": -3.1}
{"variant": "A18C G48A", "polymerase ribozyme fitness (log ratio)": -2.74}
{"variant": "G17C G42U C94U U106A", "polymerase ribozyme fitness (log ratio)": -5.2}
{"variant": "G17U U55A U112A C114G G120C", "polymerase ribozyme fitness (log ratio)": -5.87}
{"variant": "A18C A37G C62G", "polymerase ribozyme fitness (log ratio)": -6.59}
{"variant": "A18G C64G C98U G117C", "polymerase ribozyme fitness (log ratio)": -5.51}
{"variant": "A18U A37U A41G C64U", "polymerase ribozyme fitness (log ratio)": -2.4}
{"variant": "A18G G107A", "polymerase ribozyme fitness (log ratio)": -3.37}
{"variant": "G17U G69U", "polymerase ribozyme fitness (log ratio)": -0.0598}
{"variant": "G17U A26G G71A C94A U112C C115A", "polymerase ribozyme fitness (log ratio)": -2.54}
{"variant": "A18C C53G C76U", "polymerase ribozyme fitness (log ratio)": -3.42}
{"variant": "A18G C72U U81A A91U U96C G120A G128A", "polymerase ribozyme fitness (log ratio)": -6.28}
{"variant": "A18G C56G G58C C114A", "polymerase ribozyme fitness (log ratio)": -3.34}
{"variant": "G17U G61A C88U C104A U133A", "polymerase ribozyme fitness (log ratio)": -4.19}
{"variant": "G17C U78C C89A U96A", "polymerase ribozyme fitness (log ratio)": -4.94}
{"variant": "A18G C49U G107A", "polymerase ribozyme fitness (log ratio)": -5.11}
{"variant": "A18G C20U G39A A43G C49A A66U U78G", "polymerase ribozyme fitness (log ratio)": -6.02}
{"variant": "A18G G61C C114U", "polymerase ribozyme fitness (log ratio)": -5.18}
{"variant": "G17U U96C", "polymerase ribozyme fitness (log ratio)": -3.71}
{"variant": "G17A G44A", "polymerase ribozyme fitness (log ratio)": -3.41}
{"variant": "A18C C49G C89G C123U", "polymerase ribozyme fitness (log ratio)": -2.67}
{"variant": "A18C C34U U112A A119G", "polymerase ribozyme fitness (log ratio)": -6.08}
{"variant": "A18C G35U A103U C115U", "polymerase ribozyme fitness (log ratio)": -4.68}
{"variant": "A18C C73A", "polymerase ribozyme fitness (log ratio)": -2.69}
{"variant": "A18C C73U", "polymerase ribozyme fitness (log ratio)": -2.53}
{"variant": "A18C C56A", "polymerase ribozyme fitness (log ratio)": -3.08}
{"variant": "A18C C56U", "polymerase ribozyme fitness (log ratio)": -2.56}
{"variant": "G17A U21A G36U A41U A84C C97U C124A", "polymerase ribozyme fitness (log ratio)": -6.13}
{"variant": "G17U A29G U55A", "polymerase ribozyme fitness (log ratio)": -4.06}
{"variant": "A18G G69U C102U C115A", "polymerase ribozyme fitness (log ratio)": -5.41}
{"variant": "G17C G48U G60A C89G C102A C114A", "polymerase ribozyme fitness (log ratio)": -6.76}
{"variant": "G17U C22G U33G G61A C115A", "polymerase ribozyme fitness (log ratio)": -4.69}
{"variant": "G17U C40G C99G A111U", "polymerase ribozyme fitness (log ratio)": -6.82}
{"variant": "G17C C20G G47C C72U G113A A119C", "polymerase ribozyme fitness (log ratio)": -7.02}
{"variant": "A18G C22G A27U G117C", "polymerase ribozyme fitness (log ratio)": -4.21}
{"variant": "G17A U132A", "polymerase ribozyme fitness (log ratio)": -2.35}
{"variant": "G17C U116G C124A", "polymerase ribozyme fitness (log ratio)": -2.05}
{"variant": "G17A G113U", "polymerase ribozyme fitness (log ratio)": -3.81}
{"variant": "G17A G113A", "polymerase ribozyme fitness (log ratio)": -3.43}
{"variant": "A18C A121C", "polymerase ribozyme fitness (log ratio)": -1.86}
{"variant": "A18G G48U", "polymerase ribozyme fitness (log ratio)": -2.96}
{"variant": "G17C A43G C101A C104A U106A U112G U126C", "polymerase ribozyme fitness (log ratio)": -6.47}
{"variant": "A18C G69U C115U", "polymerase ribozyme fitness (log ratio)": -1.28}
{"variant": "G17C C56U C89U", "polymerase ribozyme fitness (log ratio)": -3.95}
{"variant": "G17C A18C A43U C89U", "polymerase ribozyme fitness (log ratio)": -2.92}
{"variant": "G17U U116A G120A U129G", "polymerase ribozyme fitness (log ratio)": -5.36}
{"variant": "G17U U106A", "polymerase ribozyme fitness (log ratio)": -2.49}
{"variant": "G17A G69U", "polymerase ribozyme fitness (log ratio)": -1.14}
{"variant": "A18C U38A C115A U116G C123U U126A", "polymerase ribozyme fitness (log ratio)": -4.52}
{"variant": "G17C G25U G47C G120A G127A", "polymerase ribozyme fitness (log ratio)": -7.42}
{"variant": "A18G C82A C94U", "polymerase ribozyme fitness (log ratio)": -4.18}
{"variant": "G17U U78C", "polymerase ribozyme fitness (log ratio)": -2.6}
{"variant": "G17U C49A U126C", "polymerase ribozyme fitness (log ratio)": -3.28}
{"variant": "A18U A46U G61U A90C C115G", "polymerase ribozyme fitness (log ratio)": -2.56}
{"variant": "A18G G19A A43C C56U G110A", "polymerase ribozyme fitness (log ratio)": -2.58}
{"variant": "A18U A26G C40G A43U C97A U112A", "polymerase ribozyme fitness (log ratio)": -6.73}
{"variant": "G17A U112A", "polymerase ribozyme fitness (log ratio)": -1.5}
{"variant": "A18C A111U", "polymerase ribozyme fitness (log ratio)": -5.16}
{"variant": "A18C A111G", "polymerase ribozyme fitness (log ratio)": 0.883}
{"variant": "A18U A66G U78C A118G U132A", "polymerase ribozyme fitness (log ratio)": -3.83}
{"variant": "A18C C20A U54A G63C U96A", "polymerase ribozyme fitness (log ratio)": -4.09}
{"variant": "G17U G45A G60C", "polymerase ribozyme fitness (log ratio)": -2.05}
{"variant": "G17C C73A U125A", "polymerase ribozyme fitness (log ratio)": -5.15}
{"variant": "G17C", "polymerase ribozyme fitness (log ratio)": -3.67}
{"variant": "G17U", "polymerase ribozyme fitness (log ratio)": -2.29}
{"variant": "A18G C34G C70A U109A G128A", "polymerase ribozyme fitness (log ratio)": -5.92}
{"variant": "G17C A83G U116G", "polymerase ribozyme fitness (log ratio)": -5.65}
{"variant": "A18G G19U A46G U59A C79A", "polymerase ribozyme fitness (log ratio)": -4.25}
{"variant": "A18G U106A U109C", "polymerase ribozyme fitness (log ratio)": -3.8}
{"variant": "G17U C49U C115U C123G U130A", "polymerase ribozyme fitness (log ratio)": -4.8}
{"variant": "A18U A83U C101A", "polymerase ribozyme fitness (log ratio)": -3.63}
{"variant": "A18C U87C", "polymerase ribozyme fitness (log ratio)": -2.11}
{"variant": "G17U G44C G57U U112C G135A", "polymerase ribozyme fitness (log ratio)": -1.76}
{"variant": "G17A G61U C104U A111G", "polymerase ribozyme fitness (log ratio)": -2.95}
